39 molecules from US20090291081A1 (AbbVie / Abbott, published 2009) can be followed below.

T1: human IL-1α (human, UniProt P01583 113-271)
T1 sequence (looked up): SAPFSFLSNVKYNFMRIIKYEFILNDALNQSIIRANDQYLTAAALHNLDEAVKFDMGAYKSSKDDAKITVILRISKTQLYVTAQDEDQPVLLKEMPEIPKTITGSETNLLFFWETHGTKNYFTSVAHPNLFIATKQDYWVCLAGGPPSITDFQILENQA

B1: ABT2-108-533x/ABT1-122 hu IgG1/K wt (bispecific antibody, V domains shown)
VH: EVQLLESGGGLVQPGGSLRLSCAASGFTFADEGMMWVRQAPGKGLEWVSRIGQDGKNTYYADSVKGRFTISRDNSKNTLYLQMNSLRAEDTAVYYCAKYTGRILGHHLFDYWGQGTLVTVSS
VL: DIQMTQSPSSLSASVGDRVTITCRASQPIWTELNWYQQKPGKAPKLLIYGSSSLQSGVPRFSGSGSGTDFTLTISSLQPEDFATYYCQQFAYFPATFGQGTKVEIKR
B2: ABT2-65-17/ABT1-212 hu IgG1/K wt (bispecific antibody, V domains shown)
VH: EVQLLESGGGLVQPGGSLRLSCVASGFTFEDYQMGWVRQAPGKGLEWVSSISAMGNRTYYADSVKGRFTISRDDSKNTLYLQMNSLRAEDTAVYYCAQNLVRLGRSRWMFDYWGQGTLVTVSS
VL: DIQMTQSPSSLSASVGDRVTITCRASQRINGNLRWYQQKPGKAPKLLIYSVSQLQSGVPSRFSGSGSGTDFTLTISSLQPEDFATYYCQQGYDWPPTFGQGTKVETKR
B3: ABT2-13 (other)
VH: EVQLLESGGGLVQPGGSLRLSCAASGFTFRDYVMYWARQAPGKGLEWVSRIDPMGSSTYYADSVKGRFTISRDNSKNTLYLQMNSLRAEDTAVYYCAKPEGNFDYWGQGTLVTVSS
B4: ABT2-60 (other)
VL: DIQMTQSPSSLSASVGDRVTITCRASQSIRVFLSWYQQKPGKAPKLLIYNASNLQSGVPSRFSGSGSGTDFTLTISSLQPEDFATYYCQQRALYPTTFGQGTKVEIKR
notes: VK dAb
B5: ABT2-62 (other)
VL: B4 VL with R30Q, V31T, F32Y
notes: VK dAb
B6: ABT2-61 (other)
VL: B4 VL with N53H
notes: VK dAb
B7: ABT2-59 (other)
VL: B4 VL with R30N
notes: VK dAb
B8: ABT2-68 (other)
VL: DIQMTQSPSSLSASVGDRVTITCRASQNIWYHLNWYQQKPGKAPKLLIYLGSRLQSGVPSRFSGSGSGTDFTLTISSLQPEDFATYYCQQIHHDPFTFGQGTKVEIKR
B9: ABT2-108-533X (other)
VH: B1 VH
B10: ABT2-108-537X (other)
VH: B1 VH with A61R, D62M, S63D
B11: ABT2-108-538X (other)
VH: B1 VH with G52T, Q53Y, D54S
B12: ABT2-66 (other)
VH: EVQLLESGGGLVQPGGSLRLSCAASGFTFSHYTMAWVRQAPGKGLEWVSTIGSSGNSTYYADSVKGRFTISRDNSKNTLYLQMNSLRAEDTAVYYCAQMRGPYYTFDYRGQGTLVTVSS
B13: ABT2-69 (other)
VH: EVQLLESGGGLVQPGGSLRLSCAASGFTFTGYDMAWVRQAPGKGLEWVSVIYAYGESTYYADSVKGRFTISRDNSKNTLYLQMNSLRAEDTAVYYCAKVYSNQFDYWGQGTLVTVSS
B14: ABT2-72 (other)
VH: B13 VH with T30R, G31A, A35G, Y54W, E56T, V99T, Y100S, N102D, Q103G
B15: ABT2-65-512 (other)
VH: B2 VH with R38H
B16: ABT2-65-34 (other)
VH: B2 VH with V23A, L103T, G104R, R105S, S106K
B17: ABT2-65-510 (other)
VH: B2 VH with K76E
B18: ABT2-65-504 (other)
VH: B2 VH with W47R, I51V, Y59H, E89G
B19: ABT2-65-163 (other)
VH: B2 VH with N56G
B20: ABT2-65-35 (other)
VH: B2 VH with G104R
B21: ABT2-65-160 (other)
VH: B2 VH with N56P
B22: ABT2-65 (other)
VH: B2 VH with V23A, Q98K, L103T, G104Q, R105S, S106K, R107M
B23: ABT2-65-502 (other)
VH: B2 VH with I51V, D74G
B24: ABT2-65-89 (other)
VH: B2 VH with L100M
notes: VH dAb
B25: ABT2-65-154 (other)
VH: B2 VH with V23A, Y59H, L103I, G104R, S106T, R107K
notes: VH dAb
B26: ABT2-65-7 (other)
VH: B2 VH with V23A, M54T, L103T, G104R, R105I, S106K, R107M
notes: VH dAb
B27: ABT2-65-140 (other)
VH: B2 VH with V23A, Q98E, R102K, L103I, G104S, S106R, R107H
notes: VH dAb
B28: ABT2-65-48 (other)
VH: EVQLLESGGGLVQPGGSLRLSCAASGFTFEDYQMGWVRQAPGKGLEWVSSISAMGNRTYYADSVKGRFTISRDDSKNTLYLQMNSLRAEDTAVYYCAKWQMRTQSKLGYFDYWGQGTLVTVSS
notes: VH dAb
B29: ABT2-65-166 (other)
VH: B2 VH with V23A, N56G, D74N
B30: ABT2-65-8 (other)
VH: B2 VH with V23A, L103M, G104D, R105S, S106R
B31: ABT2-65-113 (other)
VH: B2 VH with V23A, E30V, D31Q
notes: VH dAb
B32: ABT2-65-47 (other)
VH: B28 VH with Q100R, M101K
notes: VH dAb
B33: ABT2-65-85 (other)
VH: B2 VH with L5M, T69A, E89K
notes: VH dAb
B34: ABT2-65-81 (other)
VH: B2 VH with D31E
notes: VH dAb
B35: ABT2-65-79 (other)
VH: B2 VH with E89G, L118M
notes: VH dAb
B36: ABT2-65-82 (other)
VH: B2 VH with Q13R, S75P
notes: VH dAb
B37: ABT2-65-6 (other)
VH: B2 VH with V23A, L103T, G104Q, R105S, S106K, R107M
notes: VH dAb
B38: ABT2-67 (other)
VL: DIQMTQSPSSLSASVGDRVTITCRASQYIGEHLAWYQQKPGKAPKLLIYHNSALQSGVPSRFSGSGSGTDFTLTISSLQPEDFATYYCQQHAFLPNTFGQGTKVEIKR
B39: ABT2-76 (other)
VL: B38 VL with Y28S, G30D, E31R, H32W, H50R, N51G, A53I, H91V, L94W, N96P

As a reminder, the IC50 is the midpoint of a concentration-inhibition curve. Higher therefore signals weaker potency in that assay.

Positions count from the first letter of the chain named.

One assay has as its target T1, human IL-1α. Briefly: cell-based or functional assay.
With B1, the “IL-1α IC50” value amounted to 1000 nM.

With B2, the “IL-1α IC50” value is 100 nM.

The next assay addresses T2, human IL-1β (human, UniProt P01584 117-269). In words: cell-based or functional assay.
With B3, the “ND50” value is 1000 nM. B4: the “ND50” value was above 1000 nM. On to B5, for which the “ND50” value was above 1000 nM.

Regarding B6, the “ND50” value was above 1000 nM. On to B7, for which the “ND50” value is above 1000 nM. For the molecule B8, the “ND50” value is above 10000 nM. On to B9, for which the “ND50” value was determined as 5 nM.

Take B10: the “ND50” value was 206 nM. Take B11: the “ND50” value is 5 nM. For the molecule B12, the “ND50” value was above 10000 nM. For B13, the “ND50” value is above 10000 nM. On the same count and under the same terms, the same measure for B14: above 10000 nM; for B15: 3 nM; for B16: 20 nM. In the case of B17, the “ND50” value was determined as 1 nM. For the molecule B18, the “ND50” value is 4 nM. As to B19, the “ND50” value is 2 nM. For the molecule B20, the “ND50” value turned out to be 4 nM. In the case of B21, the “ND50” value stood at 2 nM. With B22, the “ND50” value amounted to 505 nM. For the molecule B23, the “ND50” value is 2 nM. Take B24: the “ND50” value came out at 2 nM. B25: the “ND50” value came out at 1.5 nM. On to B26, for which the “ND50” value is 200 nM. In the case of B27, the “ND50” value stood at 1 nM. B28: the “ND50” value is 80 nM.

On to B29, for which the “ND50” value is 4 nM. In the case of B30, the “ND50” value was determined as 3 nM. B31: the “ND50” value worked out at 3 nM. On the same count and under the same terms, the same measure for B32: 80 nM. B33: the “ND50” value stood at 2 nM. As for B34, the “ND50” value turned out to be 2 nM. On the same count and under the same terms, the same measure for B35: 2 nM; for B36: 2 nM; for B37: above 1000 nM. For B38, the “ND50” value was above 10000 nM. As to B39, the “ND50” value was 500 nM.

For the next assay, the target named is T2, human IL-1β. Briefly: IC50 column of Table 63; receptor binding assay presumed.
B3 yielded an IC50 of 175 nM. Same read-out and setting: next, B4: 1000 nM; B5: 1000 nM; B6: 1000 nM. In turn, B7 registered a 50% inhibitory concentration (IC50) of 700 nM.

As for B22, the 50% inhibitory concentration (IC50) was found to be 100 nM. Molecule B24 showed a half-maximal inhibitory concentration (IC50) of 10 nM.

On to B25, for which the half-inhibitory concentration (IC50) worked out at 3 nM. The molecule B26 registered an IC50 of 30 nM. Same read-out and setting: next, B27: 2 nM.

With B28, the concentration for half-maximal inhibition (IC50) was determined as 20 nM. For the molecule B29, the IC50 amounted to 4 nM. On to B30, for which the half-inhibitory concentration (IC50) was found to be 10 nM. On the same count and under the same terms, next, B31: 3.3 nM; B32: 20 nM; B33: 7 nM. Turning to B34, the half-inhibitory concentration (IC50) amounted to 10 nM.

As to B35, the 50% inhibitory concentration (IC50) came to 6 nM. As to B36, the IC50 came to 8 nM. B37 had an IC50 of 30 nM.
